From patent publication US20100305307A1 (published 2010) come the findings set out here.

Test [1] has as its target human EGF-r expressed on the surface of human carcinoma cells (A431, SW948) (human) (UniProt P00533). The test can be described thus: cell-based or functional assay.
In test [2] the target is soluble EGF-r purified from A431 cell membranes (Sigma, E-3641) (human, UniProt P00533 25-1210, limits assumed). The test can be described thus: BIAcore, solid phase, antigen immobilized on the sensor surface. (Surface plasmon resonance follows binding to a sensor surface in real time, without labels.)
Experimental: Determination of affinity constants of fully human Mabs by BIAcore: Affinity measurement of purified human monoclonal antibodies, Fab fragments, or hybridoma supernatants by plasmon resonance was carried out using the BIAcore 2000 instrument, using general procedures outlined by the manufacturers.
Based upon the general procedures outlined by the manufacture, kinetic analyses of the antibodies were performed using antigens immobilized onto the sensor surface at a low density. […] The dissociation (kd or koff) and association (ka or kₒₙ) rates were determined using the software provided by the manufacturer (BIA evaluation 2.1).

With murine monoclonal antibody 528, in test [1], the IC50, inhibition of A431 cell proliferation in vitro was found to be 0.66 nM.

B1: antibody secreted by the hybridoma E1.1 (antibody, V domains shown)
VH: VSGGSINSGDYYWSWIRQHPGKGLDCIGYIYYSGSTYYNPSLKSRVTISVDTSKNQFFLKLTSVTAADTAVYYCARSTVVNPGWFDPWGQGTLVTVSS
VL: TITCQASQDINNYLNWFQQKPGKAPKVLIHDASNLETGGPSRFSGSGSGTDFTFTISGLQPEDIATYYCQQYESLPLTFGGGTKVEIKR
notes: Fully human IgG2 heavy chain with human kappa light chain; they were cloned by PCR between V-region and constant-region primers, so they are probably not full chains
In general, Kd refers to the free concentration of one partner at which half of the binding sites on the other are occupied at equilibrium, for simple one-to-one binding. Read a high Kd as weaker binding. B1: the Kd in test [2] was 0.076 nM.
